Measured values as given in US20030129189A1, “Tumor necrosis factor-gamma” (priority 1994, published 2003).

B4: full length TNF-gamma-beta on the cell surface (HEK293F stable transfectants; transfected cells) (ligand)
chain: MAEDLGLSFGETASVEMLPEHGSCRPKARSSSARWALTCCLVLLPFLAGLTTYLLVSQLRAQGEACVQFQALKGQEFAPSHQQVYAPLRADGDKPRAHLTVVRQTPTQHFKNQFPALHWEHELGLAFTKNRMNYTNKFLLIPESGDYFIYSQVTFRGMTSECSEIRQAGRPNKPDSITVVITKVTDSYPEPTQLLMGTKSVCEVGSNWFQPIYLGAMFSLQEGDKLMVNVSDISLVDYTKEDKTFFGAFLL
notes: also called TNF-gamma-beta expressing cells

Tests used:
[1] = target: T1, recombinant, untagged TNF-gamma-beta protein (aa 72-251) (human, UniProt O95150 72-251); test: BIAcore 3000, TNFR-Fc immobilised on CM5 chip, TNF-gamma-beta in flow
T1 construct: they are put here; also called TL1β; non-tagged TNF-gamma-beta
T1 sequence: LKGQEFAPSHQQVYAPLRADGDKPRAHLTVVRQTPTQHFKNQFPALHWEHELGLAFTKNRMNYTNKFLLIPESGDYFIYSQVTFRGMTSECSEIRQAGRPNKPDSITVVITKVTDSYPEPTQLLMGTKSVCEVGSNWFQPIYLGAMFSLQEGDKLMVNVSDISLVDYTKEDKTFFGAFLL
Description: TNFR-Fc were covalently immobilized to the BIAcore sensor chip (CM5 chip) via amine groups using N-ethyl-N′-(dimethylaminopropyl) carbodiimide/N-hydroxysuccinimide chemistry. […] The amount of bound protein was determined during washing of the flow cell with HBS buffer (10 mM HEPES, pH 7.4, 150 mM NaCl, 3.4 mM EDTA, 0.005% Surfactant P20). The flow cell surface was regenerated by displacing bound protein by washing with 20 microliters of 10 mM glycine-HCl, pH 2.3. For kinetic analysis, the on and off rates were determined using the kinetic evaluation program in BIAevaluation 3 software using a 1:1 binding model and the global analysis method.

[2] = target: T2, FLAG-tagged soluble TNF-gamma-beta (aa 72-251) (human, UniProt O95150 72-251); test: co-immunoprecipitation with protein A-Sepharose, anti-Flag M2 blot
T2 construct: also called FLAG-TL1β; FLAG-TNF-gamma-beta; not shown: The N-terminal FLAG tag (pFLAG-CMV-1 vector) and any vector linker
T2 sequence: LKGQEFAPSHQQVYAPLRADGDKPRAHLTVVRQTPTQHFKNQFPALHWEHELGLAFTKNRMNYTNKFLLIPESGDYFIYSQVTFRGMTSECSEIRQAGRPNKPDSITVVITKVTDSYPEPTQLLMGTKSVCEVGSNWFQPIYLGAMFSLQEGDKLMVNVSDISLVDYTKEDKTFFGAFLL
Excerpt: The beads were then precipitated and washed extensively with PBST buffer (PBS, 0.5% Triton X-100) before boiled in SDS-sample buffer. Proteins were resolved on 4-20% Tris-Glycine gels (NOVEX), transferred to nitrocellulose membranes, and blotted with anti-Flag M2 monoclonal antibody (1 microgram/ml, Sigma) andhorseradish peroxidase (HRP)-conjugated goat anti-mouse IgG antibody (0.5 microgram/ml).

[3] = target: B4; test: flow cytometry on HEK293F cells expressing full length TNF-gamma-beta
Description: (§1) TR6 has been previously described as a decoy receptor (Pitti et al., Nature 396:699-703 (1998); Yu et al., J. Biol. Chem. 274:13733-6 (1999)) capable of competing with Fas and HveA for binding of FasL and LIGHT, respectively.
(§2) One million cells, in 0.1 ml of FACS buffer (PBS, 0.1% BSA, 0.1% NaN₃), were incubated with 0.1-1 microgram of protein or antibody at RT for 15 min. The cells were washed with 3 ml of FACS buffer, reacted with biotinylated primary antibody, and stained with PE-conjugated secondary antibody at RT for 15 min. Cells were then washed again, resuspended in 0.5 microgram/ml of propidium iodide, and live cells were gated and analyzed on a FACScan using the CellQuest software (BD Biosciences).

[4] = tested on: MC-38 murine colon cancer; test: In vivo tumorigenicity assay, syngeneic MC-38 colon cancer; design: species or system C57BL6/6 mice; details: local production by transfected MCA 38 cells, 1×10^6 cells/mouse
Description: [The full-length TNF-gamma and extracellular domain of DR3 was cloned into pcDNA3 expression vector and transfected to MCA 38 cells, respectively. After selection and cloning, three clones from each constructs were picked for tumorigenicity study. MCA 38 cells (1×10^6 cells/mouse) expressing TNF-gamma or DR3 extracellular domain were injected into C57BL6/6 mice. The tumor size was assessed by measuring perpendicular diameters with a caliper and calculated by multiplying the measurements of diameters in two dimensions. Data are represented as the mean +/−SD of 6 mice in each group.] It is clear that most immune cells and cancer cells can express more than one TNF receptor (even more than one death receptor) and ligand superfamily member. […] Moreover, the expression of these ligands and receptors may differ at the level of individual cell types within tissues and the expression level on the same cell type may also differ.
The full length TNF-gamma and extracellular domain of DR3 was cloned into pcDNA3 expression vector (Invitrogen, Carlsbad, Calif.) and transfected to MCA 38 cells, respectively. […] Mice then were randomized and tumors were measured twice weekly. The tumor size was assessed by measuring perpendicular diameters with a caliper and calculated by multiplying the measurements of diameters in two dimensions. […]

[5] = target: T3, Fc-fusion form of the extracellular domain of OPG (UniProt O00300 22-401, limits assumed); test: flow cytometry on HEK293F cells expressing full length TNF-gamma-beta
T3 construct: extracellular domain; not shown: Fc part of the fusion
T3 sequence (looked up): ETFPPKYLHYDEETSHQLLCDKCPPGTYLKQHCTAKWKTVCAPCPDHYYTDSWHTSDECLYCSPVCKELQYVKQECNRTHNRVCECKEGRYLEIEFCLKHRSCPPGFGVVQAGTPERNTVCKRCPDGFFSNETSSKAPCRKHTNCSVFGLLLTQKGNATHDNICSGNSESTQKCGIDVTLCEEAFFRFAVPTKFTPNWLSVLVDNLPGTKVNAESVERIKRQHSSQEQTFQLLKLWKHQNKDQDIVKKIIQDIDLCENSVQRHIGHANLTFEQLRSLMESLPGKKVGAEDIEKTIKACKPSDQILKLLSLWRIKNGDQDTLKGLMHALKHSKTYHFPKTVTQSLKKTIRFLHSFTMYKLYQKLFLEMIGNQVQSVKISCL
Description: as §1, §2

[6] = target: T4, Fc-fusion form of the extracellular domain of DR6 (UniProt O75509 42-349, limits assumed); test: as above
T4 construct: extracellular domain; not shown: Fc part of the fusion
T4 sequence (looked up): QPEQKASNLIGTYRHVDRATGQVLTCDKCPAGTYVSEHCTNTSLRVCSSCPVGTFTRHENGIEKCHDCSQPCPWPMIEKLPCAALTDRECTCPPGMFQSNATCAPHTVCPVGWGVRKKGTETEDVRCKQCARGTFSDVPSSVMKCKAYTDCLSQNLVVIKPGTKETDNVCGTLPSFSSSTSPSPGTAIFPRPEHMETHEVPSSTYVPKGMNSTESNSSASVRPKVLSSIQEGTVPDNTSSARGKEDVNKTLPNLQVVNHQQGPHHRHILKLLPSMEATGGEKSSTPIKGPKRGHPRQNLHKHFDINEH
Description: as §1, §2

non-tagged form of TR6 = target: T5, non-tagged form of TR6 (UniProt O95407 30-300); test: competition flow cytometry on HEK293F cells expressing TNF-gamma-beta; competitor of DR3-Fc
T5 construct: also called DcR3
T5 sequence (looked up): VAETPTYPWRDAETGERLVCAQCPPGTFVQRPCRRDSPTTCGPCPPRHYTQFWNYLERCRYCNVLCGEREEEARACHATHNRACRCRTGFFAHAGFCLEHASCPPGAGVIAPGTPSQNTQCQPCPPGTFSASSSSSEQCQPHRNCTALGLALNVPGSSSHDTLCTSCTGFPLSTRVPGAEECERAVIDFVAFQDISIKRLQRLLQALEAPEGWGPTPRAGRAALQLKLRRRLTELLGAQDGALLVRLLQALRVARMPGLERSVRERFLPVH
Description: as §1, §2

B1: BCMA-Fc (Fc fusion, human, UniProt Q02223 1-54, looked up)
chain: MLQMAGQCSQNEYFDSLLHACIPCQLRCSSNTPPLTCQRYCNASVTNSVKGTNA
notes: Control surface of the BIAcore analysis; not shown: Fc part of the fusion; not described for this receptor
Question: Does B1 bind [1]?
Answer: Result: no binding (tested: 3-370 nM)

B2: TACI-Fc (extracellular domain of human TACI, aa 1-159, fused to the Fc domain of human IgG1) (Fc fusion, UniProt O14836 1-159, looked up)
chain: MSGLGRSRRGGRSRVDQEERFPQGLWTGVAMRSCPEEQYWDPLLGTCMSCKTICNHQSQRTCAAFCRSLSCRKEQGKFYDHLLRDCISCASICGQHPKQCAYFCENKLRSPVNLPPELRRQRSGEVENNSDNSGRYQGLEHRGSEASPALPGLKLSADQ
notes: range 1-159; also called TAC1; not shown: Fc domain of human IgG1, fused in-frame to the C-terminus of the receptor part
Question: Does B2 bind [2]?
Answer: Result: no binding

Question: Does B2 bind [3]?
Answer: Result: no binding

B3: soluble DR3: extracellular domain of DR3 locally produced by transfected MCA 38 cells (protein, UniProt Q93038 25-199, looked up)
extracellular domain: QGGTRSPRCDCAGDFHKKIGLFCCRGCPAGHYLKAPCTEPCGNSTCLVCPQDTFLAWENHHNSECARCQACDEQASQVALENCSAVADTRCGCKPGWFVECQVSQCVSSSPFYCQPCLDCGALHRHTRLLCSRRDTDCGTCLPGFYEHGDGCVSCPTSTLGSCPERCAAVCGWRQ
modifications: extracellular domain
notes: extracellular domain of DR3 locally produced by transfected MCA 38 cells
Question: For B3, which tumor growth [4] is on record?
Answer: The tumor growth was “promotes tumor growth”.

Question: What does the source list for B4?
Answer: binding result [5]: no binding; binding result [6]: no binding; binding result (non-tagged form of TR6): binds
